How the values were obtained:
Assay in all cases: IP/MS, LZTR1 wild type-FLAG, U87
HELZ = HELZ (human, UniProt P42694 1-1942, limits assumed)
Method in brief: (§1)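 Extracted peptides in 3% acetonitrile/0.1% formic acid ran on a 50 cm C18 column into an Orbitrap Fusion, with MaxQuant identification and spectral counting.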

EIF2AK4 = EIF2AK4 (human, UniProt Q9P2K8 1-1649, limits assumed)
Method in brief: as §1

RALGAPB = target: T1, RALGAPB (human, UniProt Q86X10 1-1494, limits assumed)
T1 sequence (looked up): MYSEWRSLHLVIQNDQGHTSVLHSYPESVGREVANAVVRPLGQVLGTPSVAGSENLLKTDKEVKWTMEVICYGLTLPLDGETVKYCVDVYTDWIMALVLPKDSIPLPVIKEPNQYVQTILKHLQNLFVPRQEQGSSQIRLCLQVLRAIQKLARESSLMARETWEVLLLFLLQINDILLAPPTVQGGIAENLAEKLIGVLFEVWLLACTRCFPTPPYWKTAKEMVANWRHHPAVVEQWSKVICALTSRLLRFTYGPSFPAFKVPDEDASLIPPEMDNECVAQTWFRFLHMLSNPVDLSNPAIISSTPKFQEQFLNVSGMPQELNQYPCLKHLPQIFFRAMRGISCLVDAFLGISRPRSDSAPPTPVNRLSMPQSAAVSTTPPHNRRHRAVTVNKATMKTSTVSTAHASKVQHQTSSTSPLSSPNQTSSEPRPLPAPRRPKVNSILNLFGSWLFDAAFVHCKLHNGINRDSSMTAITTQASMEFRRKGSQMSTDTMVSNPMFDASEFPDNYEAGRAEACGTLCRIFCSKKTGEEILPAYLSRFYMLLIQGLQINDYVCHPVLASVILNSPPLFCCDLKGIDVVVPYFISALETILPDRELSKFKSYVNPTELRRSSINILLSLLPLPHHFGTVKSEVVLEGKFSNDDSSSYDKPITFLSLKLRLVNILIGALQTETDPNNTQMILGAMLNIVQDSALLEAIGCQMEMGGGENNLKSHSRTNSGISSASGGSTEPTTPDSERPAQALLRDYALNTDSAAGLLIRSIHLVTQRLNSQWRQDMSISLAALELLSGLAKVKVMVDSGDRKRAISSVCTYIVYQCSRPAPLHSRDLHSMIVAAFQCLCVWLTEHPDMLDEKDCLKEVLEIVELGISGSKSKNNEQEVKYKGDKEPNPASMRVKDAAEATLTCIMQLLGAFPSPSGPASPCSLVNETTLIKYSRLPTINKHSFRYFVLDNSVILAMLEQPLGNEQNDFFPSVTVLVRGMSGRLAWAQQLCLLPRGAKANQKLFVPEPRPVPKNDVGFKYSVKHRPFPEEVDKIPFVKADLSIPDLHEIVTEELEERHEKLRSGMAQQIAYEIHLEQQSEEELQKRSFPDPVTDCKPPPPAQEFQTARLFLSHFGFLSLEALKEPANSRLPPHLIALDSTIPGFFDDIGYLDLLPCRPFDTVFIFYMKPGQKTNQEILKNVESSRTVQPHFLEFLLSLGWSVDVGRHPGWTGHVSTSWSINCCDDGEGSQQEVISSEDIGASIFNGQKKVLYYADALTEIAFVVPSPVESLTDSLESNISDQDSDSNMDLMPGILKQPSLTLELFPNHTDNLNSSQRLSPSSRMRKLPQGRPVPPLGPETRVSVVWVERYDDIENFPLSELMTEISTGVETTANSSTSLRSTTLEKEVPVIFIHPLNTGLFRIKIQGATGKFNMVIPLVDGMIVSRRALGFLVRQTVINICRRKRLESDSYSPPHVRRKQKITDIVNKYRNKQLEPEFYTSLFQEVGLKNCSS
Method in brief: as §1

EPG5 = EPG5 (human, UniProt Q9HCE0 1-2579, limits assumed)
Method in brief: as §1

Measured: binding result

Chain of EIF2AK4 (Q9P2K8 whole entry): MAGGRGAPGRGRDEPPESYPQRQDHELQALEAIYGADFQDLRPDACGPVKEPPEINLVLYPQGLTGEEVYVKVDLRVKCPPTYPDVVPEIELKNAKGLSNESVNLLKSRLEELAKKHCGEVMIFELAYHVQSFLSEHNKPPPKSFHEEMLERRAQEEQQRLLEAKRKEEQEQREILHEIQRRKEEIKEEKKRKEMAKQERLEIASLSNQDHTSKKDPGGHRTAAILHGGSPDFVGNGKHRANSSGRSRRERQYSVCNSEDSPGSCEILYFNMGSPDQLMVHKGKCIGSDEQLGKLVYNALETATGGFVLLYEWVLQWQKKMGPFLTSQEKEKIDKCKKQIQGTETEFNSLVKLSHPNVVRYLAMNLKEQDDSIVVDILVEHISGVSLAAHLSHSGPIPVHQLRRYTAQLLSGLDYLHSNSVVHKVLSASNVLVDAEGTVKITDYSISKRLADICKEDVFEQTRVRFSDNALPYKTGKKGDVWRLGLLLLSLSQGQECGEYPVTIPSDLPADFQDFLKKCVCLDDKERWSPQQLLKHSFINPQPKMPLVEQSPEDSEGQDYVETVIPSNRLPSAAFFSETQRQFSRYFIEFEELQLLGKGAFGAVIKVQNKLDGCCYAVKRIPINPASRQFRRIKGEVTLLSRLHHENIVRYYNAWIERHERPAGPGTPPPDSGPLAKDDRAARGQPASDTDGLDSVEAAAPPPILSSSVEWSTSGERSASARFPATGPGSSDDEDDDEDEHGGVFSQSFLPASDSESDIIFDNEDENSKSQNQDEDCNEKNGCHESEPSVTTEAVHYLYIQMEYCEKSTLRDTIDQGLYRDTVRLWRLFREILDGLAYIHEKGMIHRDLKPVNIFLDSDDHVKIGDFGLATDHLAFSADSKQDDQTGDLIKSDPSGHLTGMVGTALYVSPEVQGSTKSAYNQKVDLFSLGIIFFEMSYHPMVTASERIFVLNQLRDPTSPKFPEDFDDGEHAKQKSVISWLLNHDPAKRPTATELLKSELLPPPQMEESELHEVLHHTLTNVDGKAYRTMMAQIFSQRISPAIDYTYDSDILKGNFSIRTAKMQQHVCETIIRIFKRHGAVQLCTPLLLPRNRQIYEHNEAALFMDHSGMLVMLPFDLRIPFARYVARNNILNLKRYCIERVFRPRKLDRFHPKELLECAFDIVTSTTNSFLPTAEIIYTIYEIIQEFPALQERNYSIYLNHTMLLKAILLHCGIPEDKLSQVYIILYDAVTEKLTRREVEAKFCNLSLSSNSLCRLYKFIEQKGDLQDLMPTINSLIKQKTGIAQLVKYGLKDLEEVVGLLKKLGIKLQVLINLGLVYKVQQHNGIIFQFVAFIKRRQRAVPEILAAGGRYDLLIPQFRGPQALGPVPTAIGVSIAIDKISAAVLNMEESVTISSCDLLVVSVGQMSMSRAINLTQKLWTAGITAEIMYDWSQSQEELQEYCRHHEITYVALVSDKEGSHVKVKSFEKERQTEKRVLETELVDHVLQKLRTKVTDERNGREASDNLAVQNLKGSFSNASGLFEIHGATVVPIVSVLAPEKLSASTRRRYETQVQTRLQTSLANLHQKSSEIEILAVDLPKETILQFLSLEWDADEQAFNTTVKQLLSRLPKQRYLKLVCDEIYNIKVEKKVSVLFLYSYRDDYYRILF
Chain of HELZ (P42694 whole entry, the tested form may be a part): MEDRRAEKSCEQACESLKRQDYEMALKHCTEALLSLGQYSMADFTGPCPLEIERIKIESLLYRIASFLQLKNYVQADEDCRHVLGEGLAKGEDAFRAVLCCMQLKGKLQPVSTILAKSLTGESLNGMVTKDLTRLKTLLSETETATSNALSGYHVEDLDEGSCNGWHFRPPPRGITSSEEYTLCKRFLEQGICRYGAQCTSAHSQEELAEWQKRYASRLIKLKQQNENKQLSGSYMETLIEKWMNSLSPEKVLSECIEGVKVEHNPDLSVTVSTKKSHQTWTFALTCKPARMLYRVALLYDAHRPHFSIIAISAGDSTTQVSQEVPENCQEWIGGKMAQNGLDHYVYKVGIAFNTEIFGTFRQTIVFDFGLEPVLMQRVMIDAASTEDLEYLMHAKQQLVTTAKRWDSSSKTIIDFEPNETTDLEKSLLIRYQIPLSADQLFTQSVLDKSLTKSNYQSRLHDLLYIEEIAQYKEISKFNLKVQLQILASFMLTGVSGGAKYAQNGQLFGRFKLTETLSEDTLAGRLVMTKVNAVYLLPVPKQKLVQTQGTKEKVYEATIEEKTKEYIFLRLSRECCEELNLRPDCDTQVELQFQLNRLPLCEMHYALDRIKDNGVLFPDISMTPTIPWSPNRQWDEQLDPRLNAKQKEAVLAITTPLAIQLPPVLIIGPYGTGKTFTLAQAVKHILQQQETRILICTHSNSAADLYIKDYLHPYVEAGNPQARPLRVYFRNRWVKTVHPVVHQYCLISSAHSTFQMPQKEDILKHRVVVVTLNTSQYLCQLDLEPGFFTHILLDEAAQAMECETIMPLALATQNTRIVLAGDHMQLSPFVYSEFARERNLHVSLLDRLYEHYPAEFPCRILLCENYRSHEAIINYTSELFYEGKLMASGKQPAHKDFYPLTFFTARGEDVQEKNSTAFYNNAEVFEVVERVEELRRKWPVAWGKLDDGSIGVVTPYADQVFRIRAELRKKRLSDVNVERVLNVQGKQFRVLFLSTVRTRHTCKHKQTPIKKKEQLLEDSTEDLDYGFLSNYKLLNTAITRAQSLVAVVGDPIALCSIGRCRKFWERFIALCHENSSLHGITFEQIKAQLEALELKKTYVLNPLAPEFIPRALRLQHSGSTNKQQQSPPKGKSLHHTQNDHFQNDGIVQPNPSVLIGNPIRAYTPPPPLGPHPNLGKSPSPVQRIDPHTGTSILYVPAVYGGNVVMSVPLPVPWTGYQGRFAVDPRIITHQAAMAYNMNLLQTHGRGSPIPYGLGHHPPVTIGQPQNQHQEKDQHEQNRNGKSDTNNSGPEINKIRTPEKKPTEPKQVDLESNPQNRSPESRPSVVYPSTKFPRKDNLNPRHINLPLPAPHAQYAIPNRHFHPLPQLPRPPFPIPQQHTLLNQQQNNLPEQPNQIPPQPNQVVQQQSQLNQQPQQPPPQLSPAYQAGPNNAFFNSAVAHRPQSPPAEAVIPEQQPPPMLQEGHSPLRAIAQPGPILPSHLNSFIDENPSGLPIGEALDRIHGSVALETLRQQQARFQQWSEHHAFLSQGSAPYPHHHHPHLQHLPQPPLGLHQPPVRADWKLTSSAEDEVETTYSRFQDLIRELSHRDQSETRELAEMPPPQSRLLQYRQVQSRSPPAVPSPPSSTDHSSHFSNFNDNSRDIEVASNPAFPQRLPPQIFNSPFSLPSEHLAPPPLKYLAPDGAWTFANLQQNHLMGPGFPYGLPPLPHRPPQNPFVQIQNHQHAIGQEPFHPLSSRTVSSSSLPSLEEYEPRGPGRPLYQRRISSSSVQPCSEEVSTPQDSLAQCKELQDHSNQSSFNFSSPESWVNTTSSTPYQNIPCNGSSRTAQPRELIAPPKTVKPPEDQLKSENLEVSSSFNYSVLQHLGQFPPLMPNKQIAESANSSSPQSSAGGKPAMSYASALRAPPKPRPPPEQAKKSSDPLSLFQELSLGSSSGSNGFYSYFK

B1: LZTR1-FLAG (other, human, UniProt Q8N653 1-840, looked up)
chain: MAGPGSTGGQIGAAALAGGARSKVAPSVDFDHSCSDSVEYLTLNFGPFETVHRWRRLPPCDEFVGARRSKHTVVAYKDAIYVFGGDNGKTMLNDLLRFDVKDCSWCRAFTTGTPPAPRYHHSAVVYGSSMFVFGGYTGDIYSNSNLKNKNDLFEYKFATGQWTEWKIEGRLPVARSAHGATVYSDKLWIFAGYDGNARLNDMWTIGLQDRELTCWEEVAQSGEIPPSCCNFPVAVCRDKMFVFSGQSGAKITNNLFQFEFKDKTWTRIPTEHLLRGSPPPPQRRYGHTMVAFDRHLYVFGGAADNTLPNELHCYDVDFQTWEVVQPSSDSEVGGAEVPERACASEEVPTLTYEERVGFKKSRDVFGLDFGTTSAKQPTQPASELPSGRLFHAAAVISDAMYIFGGTVDNNIRSGEMYRFQFSCYPKCTLHEDYGRLWESRQFCDVEFVLGEKEECVQGHVAIVTARSRWLRRKITQARERLAQKLEQEAAPVPREAPGVAAGGARPPLLHVAIREAEARPFEVLMQFLYTDKIKYPRKGHVEDVLLIMDVYKLALSFQLCRLEQLCRQYIEASVDLQNVLVVCESAARLQLSQLKEHCLNFVVKESHFNQVIMMKEFERLSSPLIVEIVRRKQQPPPRTPLDQPVDIGTSLIQDMKAYLEGAGAEFCDITLLLDGHPRPAHKAILAARSSYFEAMFRSFMPEDGQVNISIGEMVPSRQAFESMLRYIYYGEVNMPPEDSLYLFAAPYYYGFYNNRLQAYCKQNLEMNVTVQNVLQILEAADKTQALDMKRHCLHIIVHQFTKVSKLPTLRSLSQQLLLDIIDSLASHISDKQCAELGADI
notes: Expressed in HEK 293T, HeLa or U87 cells; used as cell lysate; also called LZTR1 wild type-FLAG; LZTR1 WT; not shown: FLAG tag at the C-terminus
binds: all assays above
